According to patent US20250043019A1 (Janssen / Centocor, published 2025):

Key:
[1] = target: T1, human CD79b and CD20 co-expressed on the surface of B-lymphoma cell lines or primary B cells (human, UniProt P11836 1-297); test: cell-based or functional assay
T1 sequence 1: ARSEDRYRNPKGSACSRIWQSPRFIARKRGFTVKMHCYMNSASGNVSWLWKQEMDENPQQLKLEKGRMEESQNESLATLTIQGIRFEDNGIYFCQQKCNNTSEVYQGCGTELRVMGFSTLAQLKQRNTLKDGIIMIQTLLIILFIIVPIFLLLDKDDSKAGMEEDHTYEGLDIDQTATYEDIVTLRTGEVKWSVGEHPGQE
T1 sequence 2: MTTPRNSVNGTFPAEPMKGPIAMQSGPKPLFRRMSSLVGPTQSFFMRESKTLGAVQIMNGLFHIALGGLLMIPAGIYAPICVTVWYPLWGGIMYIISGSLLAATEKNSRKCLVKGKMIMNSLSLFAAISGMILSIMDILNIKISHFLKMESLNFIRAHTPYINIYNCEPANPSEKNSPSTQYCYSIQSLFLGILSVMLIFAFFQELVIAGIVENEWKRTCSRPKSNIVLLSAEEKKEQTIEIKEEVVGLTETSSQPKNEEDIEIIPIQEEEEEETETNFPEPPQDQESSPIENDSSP

[2] = target: T1, human CD79b and CD20 co-expressed on …; test: cell-based or functional assay; remark: listed apart in the source

B1: C923B73 CD79bxCD20xCD3 trispecific antibody (other)
heavy: QVQLQQSGPGLVKPSQTLSLTCAISGDSVSSNSATWNWIRQSPSRGLEWLGRTYYRSKWYNDYTVSVKSRITINPDTSKNQFSLQLNSVTPEDTAVYYCTRVDIAFDYWGQGTLVTVSSASTKGPSVFPLAPSSKSTSGGTAALGCLVKDYFPEPVTVSWNSGALTSGVHTFPAVLQSSGLYSLSSVVTVPSSSLGTQTYICNVNHKPSNTKVDKKVEPKSCDKTHTCPPCPAPEAAGGPSVFLFPPKPKDTLMISRTPEVTCVVVSVSHEDPEVKFNWYVDGVEVHNAKTKPREEQYNSTYRVVSVLTVLHQDWLNGKEYKCKVSNKALPAPIEKTISKAKGQPREPQVYTLPPSREEMTKNQVSLSCAVKGFYPSDIAVEWESNGQPENNYKTTPPVLDSDGSFFLVSKLTVDKSRWQQGNVFSCSVMHEALHNRFTQKSLSLSPGK
light: QTVVTQPPSVSEAPRQRVTISCSGSSSNIGNHGVNWYQQLPGKAPKLLIYNDDLLPSGVSDRFSGSTSGTSGSLAISGLQSEDEADYYCAAWDDSLNGVVFGGGTKLTVLGQPKAAPSVTLFPPSSEELQANKATLVCLISDFYPGAVTVAWKADSSPVKAGVETTTPSKQSNNKYAASSYLSLTPEQWKSHRSYSCQVTHEGSTVEKTVAPTECS
chain: EIVLTQSPATLSASPGERVTLSCSASSSVSYMNWYQQKPGQAPRRWIYDSSKLASGVPARFSGSGSGRDYTLTISSLEPEDFAVYYCQQWSRNPPTFGGGTKVEIKGGSEGKSSGSGSESKSTGGSQVQLVQSGAEVKKPGSSVKVSCKASGYTFTRSTMHWVRQAPGQGLEWMGYINPSSAYTNYAQKFQGRVTLTADKSTSTAYMELSSLRSEDTAVYYCASPQVHYDYGGFPYWGQGTLVTVSSEPKSSDKTHTCPPCPAPEAAGGPSVFLFPPKPKDTLMISRTPEVTCVVVSVSHEDPEVKFNWYVDGVEVHNAKTKPREEQYNSTYRVVSVLTVLHQDWLNGKEYKCKVSNKALPAPIEKTISKAKGQPREPQVYTLPPSREEMTKNQVSLWCLVKGFYPSDIAVEWESNGQPENNYKTTPPVLDSDGSFFLYSKLTVDKSRWQQGNVFSCSVMHEALHNHYTQKSLSLSPGKGGSEGKSSGSGSESKSTGGSAIQLTQSPSSLSASVGDRVTITCRASSSVSYIHWFQQKPGKAPKPLIYATSNLASGVPSRFSGSGSGTDFTLTISSLQPEDFATYYCQQWTSNPPTFGQGTKLEIKGGSEGKSSGSGSESKSTGGSQVQLVQSGAEVKKPGSSVKVSCKASGYTFTSYNMHWVRQAPGQGLEWMGAIYPGNGDTSYAQKFQGRVTITADKSTSTAYMELSSLRSEDTAVYYCARSTYYGGDWYFNVWGQGTLVTVSS
IC50, T-cell killing of HBL-1 (Incucyte) [1]: 6.8 nM
IC50, T-cell killing of OCI-Ly10 (Incucyte) [2]: 132 nM
